Assay results: patent publication US20080025989A1 (Seagen, published 2008)

How the values were obtained:
human CD70 [1] = target: T1, human CD70 (human, UniProt P32970 1-193); experiment: cell-based or functional assay
T1 sequence (looked up): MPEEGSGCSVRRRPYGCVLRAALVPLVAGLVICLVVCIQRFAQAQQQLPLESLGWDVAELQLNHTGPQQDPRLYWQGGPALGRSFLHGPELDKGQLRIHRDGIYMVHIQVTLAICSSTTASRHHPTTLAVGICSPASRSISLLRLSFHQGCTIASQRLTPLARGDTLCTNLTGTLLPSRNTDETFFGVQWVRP

human CD70 [2] = target: T1, human CD70; experiment: cell-based or functional assay; remark: listed apart in the source
human CD70 [3] = target: T1, human CD70; experiment: cell-based or functional assay; remark: listed apart in the source
human CD70 [4] = target: T1, human CD70; experiment: cell-based or functional assay; remark: listed apart in the source
human CD70 [5] = target: T1, human CD70; experiment: flow cytometry on allo-activated T cells after 5 days of MLR
From the text: In the second system, an MLR was set up between PBMC and an irradiated allogeneic stimulator CESS. Allogeneic activation of peripheral blood T cells was achieved by conventional mixed lymphoycte reactions (MLR). MLR were initiated by mixing PBMCs and irradiated allogeneic Epstein-Barr virus (EBV)-transformed B lymphoblastoid CESS cells (ATCC, Manassas, Va.) at a ratio of one T cell to ten irradiated CESS cells. T cell density was adjusted to 0.25×10⁶ T cells/ml of RPMI-1640 supplemented with 10% FBS and 2 mM L-glutamine. Rapid proliferation and expansion of alloreactive T cells was observed after approximately 96 hours of culture. After 5 days of stimulation, cells were assessed for CD70 expression using the anti-CD70 mAb 1F6 by flow cytometry. […] In parallel cultures in 96-well plates, graded doses of either 1F6-vcMMAE or 1F6-vcAFP were included in the cultures at initiation. DNA synthesis was assayed during the last 16 hours of the 5-day culture by a pulse of ³H-TdR.

human CD70 [6] = target: T1, human CD70; experiment: immunohistochemistry on frozen RCC tumor sections, 2 µg/ml
Description: Immunohistochemistry was used to determine if over-expression of CD70 transcript in RCC was paralleled by CD70 protein expression. Frozen RCC tissue sections and normal adjacent tissue sections from two patients independent of those used in CD70 transcript analysis (FIGS. 6 and 7) were fixed in acetone at −20° C. for 10 minutes. After rehydration in PBS, sections were blocked with PBS containing 5% normal goat serum and Avidin D for 30 minutes at room temperature, and washed in PBS. Sections were incubated with the anti-CD70 mAb 2F2 or non-binding IgG at 2 μg/ml in PBS containing 5% normal goat serum with biotin for 60 minutes at room temperature. After washes with PBS, biotinylated anti-mouse IgG (VECTASTAIN ABC Kit, Vector Laboratories, Burlingame, Calif.) at a 1:250 dilution in PBS containing 5% normal goat serum was used to detect bound primary antibody by incubating for 30 minutes at room temperature. Excess biotinylated anti-mouse IgG was removed by PBS washes. Sections were quenched with 1% H₂O₂ in PBS for 30 minutes at room temperature, washed, and then incubated with the VECTASTAIN ABC complex made up according to the manufacturer's instructions. After PBS washes, sections were incubated for 30 minutes at room temperature with the DAB solution (VECTASTAIN ABC Kit) made up according to the manufacturer's instructions for color development. […]

B1: 1F6-vcAFP (antibody, V domains shown)
VH: QIQLVQSGPEVKKPGETVKISCKASGYTFTNYGMNWVKQAPGKGLKWMGWINTYTGEPTYADAFKGRFAFSLETSASTAYLQINNLKNEDTATYFCARDYGDYGMDYWGQGTSVTVSS
VL: DIVLTQSPASLAVSLGQRATISCRASKSVSTSGYSFMHWYQQKPGQPPKLLIYLASNLESGVPARFSGSGSGTDFTLNIHPVEEEDAATYYCQHSREVPWTFGGGTKLEIKR
modifications: maleimidocaproyl-val-cit-AFP on cysteine thiols of the DTT-reduced antibody (positions not stated)
IC50, cytotoxicity (alamarBlue) on CD70+ RCC lines (human CD70 [1]): < 20 ng/mL
IC50, proliferation of activated CD70-expressing T cell clones C2A, 40D8 and 4.01.1 (human CD70 [1]): < 0.05 µg/mL

B2: 1F6-vcMMAF (antibody, V domains shown)
VH: B1 VH
VL: B1 VL
modifications: MC-Val-Cit-PAB-MMAF on cysteine thiols of the DTT-reduced antibody (positions not stated)
IC50, cytotoxicity (alamarBlue) on CD70+ RCC lines (human CD70 [1]): < 30 ng/mL
IC50, proliferation inhibition of all CD70+ RCC lines tested (human CD70 [1]): < 30 ng/mL

B3: 1F6-vcMMAE (antibody, V domains shown)
VH: B1 VH
VL: B1 VL
modifications: maleimidocaproyl-val-cit-PAB-MMAE on cysteine thiols of the DTT-reduced antibody (positions not stated)
IC50, proliferation of Caki-1 cells (human CD70 [1]): < 20 ng/mL
IC50, proliferation of Caki-2 cells (human CD70 [1]): < 20 ng/mL

B4: chimeric 1F6 (c1F6)-mcMMAF4 (antibody, V domains shown)
VH: B1 VH
VL: B1 VL
modifications: maleimidocaproyl-MMAF drug-linker, average of four per antibody (positions not stated)
IC50 (ng/mL), cytotoxicity on Hs445 cells (human CD70 [2]): 310 ng/mL
IC50 (ng/mL), cytotoxicity on KMH2 cells (human CD70 [2]): 5.2 ng/mL
IC50 (ng/mL), cytotoxicity on L428 cells (human CD70 [2]): 35 ng/mL
IC50 (ng/mL), cytotoxicity on RPMI-6666 cells (human CD70 [2]): 230 ng/mL
IC50 (ng/mL), cytotoxicity on SUP-HD-1 cells (human CD70 [2]): 53 ng/mL
IC50 (ng/mL), cytotoxicity on DBTRG-05MG cells (human CD70 [3]): 20 ng/mL
IC50 (ng/mL), cytotoxicity on GMS-10 cells (human CD70 [3]): 110 ng/mL
IC50 (ng/mL), cytotoxicity on SNB-19 cells (human CD70 [3]): 27 ng/mL
IC50 (ng/mL), cytotoxicity on U251 cells (human CD70 [3]): 15 ng/mL
IC50 (ng/mL), cytotoxicity on U373MG cells (human CD70 [3]): 35 ng/mL
IC50 (ng/mL), cytotoxicity on AMO-1 cells (human CD70 [4]): 38 ng/mL
IC50 (ng/mL), cytotoxicity on JJN-3 cells (human CD70 [4]): 61 ng/mL
IC50 (ng/mL), cytotoxicity on L363 cells (human CD70 [4]): 210 ng/mL
IC50 (ng/mL), cytotoxicity on LB cells (human CD70 [4]): 500 ng/mL
IC50 (ng/mL), cytotoxicity on LP-1 cells (human CD70 [4]): 155 ng/mL
IC50 (ng/mL), cytotoxicity on MM.1R cells (human CD70 [4]): 20 ng/mL
IC50 (ng/mL), cytotoxicity on MM.1S cells (human CD70 [4]): 22 ng/mL
IC50 (ng/mL), cytotoxicity on MOLP-8 cells (human CD70 [4]): 33 ng/mL
IC50 (ng/mL), cytotoxicity on U266 cells (human CD70 [4]): 1.7 ng/mL

B5: chimeric 1F6(c1F6)-vcMMAF4 (antibody, V domains shown)
VH: B1 VH
VL: B1 VL
modifications: val-cit-MMAF drug-linker, average of four per antibody (positions not stated)
IC50 (ng/mL), cytotoxicity on Hs445 cells (human CD70 [2]): 7.3 ng/mL
IC50 (ng/mL), cytotoxicity on KMH2 cells (human CD70 [2]): 0.41 ng/mL
IC50 (ng/mL), cytotoxicity on L428 cells (human CD70 [2]): 1.4 ng/mL
IC50 (ng/mL), cytotoxicity on RPMI-6666 cells (human CD70 [2]): 42 ng/mL
IC50 (ng/mL), cytotoxicity on SUP-HD-1 cells (human CD70 [2]): 6.3 ng/mL
IC50 (ng/mL), cytotoxicity on DBTRG-05MG cells (human CD70 [3]): 2.3 ng/mL
IC50 (ng/mL), cytotoxicity on GMS-10 cells (human CD70 [3]): 27 ng/mL
IC50 (ng/mL), cytotoxicity on SNB-19 cells (human CD70 [3]): 12 ng/mL
IC50 (ng/mL), cytotoxicity on U251 cells (human CD70 [3]): 5.3 ng/mL
IC50 (ng/mL), cytotoxicity on U373MG cells (human CD70 [3]): 16 ng/mL
IC50 (ng/mL), cytotoxicity on AMO-1 cells (human CD70 [4]): 16 ng/mL
IC50 (ng/mL), cytotoxicity on JJN-3 cells (human CD70 [4]): 46 ng/mL
IC50 (ng/mL), cytotoxicity on L363 cells (human CD70 [4]): 78 ng/mL
IC50 (ng/mL), cytotoxicity on LB cells (human CD70 [4]): 80 ng/mL
IC50 (ng/mL), cytotoxicity on LP-1 cells (human CD70 [4]): 160 ng/mL
IC50 (ng/mL), cytotoxicity on MM.1R cells (human CD70 [4]): 13 ng/mL
IC50 (ng/mL), cytotoxicity on MM.1S cells (human CD70 [4]): 20 ng/mL
IC50 (ng/mL), cytotoxicity on MOLP-8 cells (human CD70 [4]): 73 ng/mL
IC50 (ng/mL), cytotoxicity on U266 cells (human CD70 [4]): 1.2 ng/mL

B6: anti-human CD70 monoclonal antibody 1F6 (antibody, mouse IgG1, V domains shown)
VH: B1 VH
VL: B1 VL
notes: Murine hybridoma mAb from the Netherlands Red Cross Blood Transfusion Service; they were cloned with mouse IgG1 and kappa gene-specific primers; Used AlexaFluor488-conjugated for flow cytometry where necessary; also called mAb 1F6; AF-conjugated 1F6
binding result (human CD70 [5]): binds

B7: anti-human CD70 monoclonal antibody 2F2 (antibody, mouse IgG1, V domains shown)
VH: QVQLQQSGTELMTPGASVTMSCKTSGYTFSTYWIEWVKQRPGHGLEWIGEILGPSGYTDYNEKFKAKATFTADTSSNTAYMQLSSLASEDSAVYYCARWDRLYAMDYWGGGTSVTVSS
VL: DIVLTQSPASLTVSLGQKTTISCRASKSVSTSGYSFMHWYQLKPGQSPKLLIYLASDLPSGVPARFSGSGSGTDFTLKIHPVEEEDAATYYCQHSREIPYTFGGGTKLEITR
notes: Murine hybridoma mAb; they were cloned with mouse IgG1 and kappa gene-specific primers; also called mAb 2F2
binding result (human CD70 [6]): binds
